Measured values from the DeepSol protein solubility set.

Assay: soluble on expression in E. coli; label from the status in PepcDB or PDB records

Sequence	soluble on expression in E. coli
MTVVDAHLHVWDPEQAAYEWLGPAMAPVDRAMRFHDALPALRTAGVGAAVLVQAADNDEDTDLMLATAARHPEVVGVVAWVPLDDPGRARARLAALRRDPHVVGVRTLLHERSDPDWVLGPDADAGLALLAEAGLPFDYSTTSPAALRHLAELSARHPALRLVVDHLGKPPVGGGREDRAEWHRLIAAAAKHPGVHAKLSGLYSASGALDAWTTDEVRPFVEDALELFGPERLMYGGDWPISLLAGGYARTWEAMCELLAPLAPDDRAAVLGGTATRFYRLDPALLNTAHHAAVLEHHHHHH	not soluble
MTYILKTNQLTKVFKGKEVISSVNMHVKKGEIYGFLGPNGAGKTTIMKMITNLIKPTSGEIEIFGEKLTDTSYEVLKRMGTIIEYPIFYDKLTAKENLELHCEYMGYYDKNEIDHALHLVKLQGIDNKKVKDFSLGMKQRLGIARAIVTKPELLILDEPINGLDPIGIKELRDLFKMLCKEYGITLLVSSHILGEMELMADTIGVIQNGKLIKEVSMKSINGKQTEYIEITVPDVKRAAYILEDKLGIKNYKIMSGNMIRVYDTAVSQQAISKALIMNDVEIESINKKHSSLEEYFLNVMDGEGIHA	not soluble
MTYQDRSGATAVVQSSYQLVLLTPAAIHGADPREKAEFRLSSLRGVWRYWWRTLQDEPDPEKLLAKEEEWFGGTRKMKQQSPIHLSMAGVMEGTKKENILPHRTSPTLVPALPAGGEVTVTLSVRKRHQERLAQYDWYFQYVLHLASFGQRSRRGFGAVQWIGHQWSNVGEYVESLRMVLEHIGVAGAFSFAERDCLVARRGDIQTQHPVLSAVWIGEGKESAAEVVKAFGKASHEANRYGSLGYMRGKAGKLSSTLWCTVRKIGNWYYPIVTEVRNHDPHYSEPRYEQDRNRFLEIVGVRI	not soluble
MVAELAGQQDPGLGAFSCQEARRAWLDRHGNLDEAVEECVRTRRRKVQELQSLGFGPEEGSLQALFQHGGDVSRALTELQRQRLEPFRQRLWDSGPEPTPSWDGPDKQSLVRRLLAVYALPSWGRAELALSLLQETPRNYELGDVVEAVRHSQDRAFLRRLLAQECAVCGWALPHNRMQALTSCECTICPDCFRQHFTIALKEKHITDMVCPACGRPDLTDDTQLLSYFSTLDIQLRESLEPDAYALFHKKLTEGVLMRDPKFLWCAQCSFGFIYEREQLEATCPQCHQTFCVRCKRQWEEQHRGRSCEDFQNWKRMNDPEYQAQGLAMYLQENGIDCPKCKFSYALARGGCMHFHCTQCRHQFCSGCYNAFYAKNKCPEPNCRVKKSLHGHHPRDCLFYLRDWTALRLQKLLQDNNVMFNTEPPAGARAVPGGGCRVIEQKEVPNGLRDEACGKETPAGYAGLCQAHYKEYLVSLINAHSLDPATLYEVEELETATERYLHVRPQPLAGEDPPAYQARLLQKLTEEVPLGQSIPRRRK	soluble
MVAHQKADFKSKWAMVVTVNNLNDKKRADLREFSEWFIETLRLEGAFIGHYFNYEAAPVTIVETLPGNFDSCTNAYQKIHKEHPQVVLVVHILPQSQSNEYEWMKVLASRYGFVRQGLLYDNCANRFQNVETDQNSVFRNMCQWIYRSGTAIVRNEGNACGILHGKDPKPTFDKVLFNSEDIKDSVFKVLHAEEEPRGADQENMLKISGYPGMLNTFGIAQLLTPYRVNGITITGAQSAVVALENKFQVYQAVQDFNGKKLDRNHKLQVSSLVVSSPAVPLEWPSLKKSKKLVEQVGKPIRLSKVSS	not soluble
MVAHSSVEGNQGIEDRQVSTEASSDVFQSQRSRPRQSTVAFQTHFKPFNYARDFKIISNTTSMLEESGFYWGPMTVEEAHLKLKKESVGTFLIRDSRQSDVFFTLSYKAQNGPVSIRINFKNSKFSLTGSKESFDSLFKLLEHYISSPKKGLIRPCRKEPVQSLQQLCRRQIMERCDGKDIDCIPVQPILKDFLHAFPHPL	not soluble
MVASESILQALQTVIDPNTGKDLVTTRAIRNLEVNGADVTFDAQLGYPAKSQIPALRRALIAAARGVAGVDNVSVNMQSVIETHAVPRGIALLPNVKNVIAVASGKGGVGKSTTAVNLALALAAEGARVGLLDADIYGPSQAQMMGIEGRPQSEDGKTMEPLENYGVQVMSIGFLVDADEAMIWRGPMAVQALEQLLRQTNWKNLDYLVIDMPPGTGDIHLTLSQKVPVTGAVIVTTPQDIALLDARKGVKMFEKVGVPIVGVVENMAVHVCSQCGHAEHIFGQGGGQRMAQDYGLAYLGALPLDINIRQQADGGRPSVVADPDGEVAGLYKDVARQVAVAVAAMGKDYSSKFSSISISRAPAGGAAALEHHHHHH	soluble
MVATAFCDNIGFFKSPTEKRCDKDYECSGTDLCGHYVCTPLSEFRKCPEDKRCGFEYSCMSGVCRYMSDFDAERRFSNFGPDMKCKDSRVCPIGLHCSNGNCV	not soluble
